Consider two proteins from publication PMC11211670 (mLife, 2024).

Data set [1] deals with the molecule itself. The data set is described as follows: cryo-EM structure; 7 uM ecCTPS incubated with 0.58 mM DON, 1 mM CTP, 0.5 mM NADH and 10 mM MgCl2 for 30 min at 0 °C; single particle analysis of filaments, D2 symmetry, mask on the central tetramer.
Data set [2] concerns the molecule itself. The data set is described as follows: cryo-electron micrographs of filaments; purified ecCTPS^helix12+ in the product state (CTP); filaments seen in cryo samples.

B1: Escherichia coli CTP synthase (cytidine triphosphate synthase) (enzyme, UniProt P0A7E5 1-545, looked up)
chain: MTTNYIFVTGGVVSSLGKGIAAASLAAILEARGLNVTIMKLDPYINVDPGTMSPIQHGEVFVTEDGAETDLDLGHYERFIRTKMSRRNNFTTGRIYSDVLRKERRGDYLGATVQVIPHITNAIKERVLEGGEGHDVVLVEIGGTVGDIESLPFLEAIRQMAVEIGREHTLFMHLTLVPYMAASGEVKTKPTQHSVKELLSIGIQPDILICRSDRAVPANERAKIALFCNVPEKAVISLKDVDSIYKIPGLLKSQGLDDYICKRFSLNCPEANLSEWEQVIFEEANPVSEVTIGMVGKYIELPDAYKSVIEALKHGGLKNRVSVNIKLIDSQDVETRGVEILKGLDAILVPGGFGYRGVEGMITTARFARENNIPYLGICLGMQVALIDYARHVANMENANSTEFVPDCKYPVVALITEWRDENGNVEVRSEKSDLGGTMRLGAQQCQLVDDSLVRQLYNAPTIVERHRHRYEVNNMLLKQIEDAGLRVAGRSGDDQLVEIIEVPNHPWFVACQFHPEFTSTPRDGHPLFAGFVKAASEFQKRQAK
notes: CTP synthase of Escherichia coli, full-length gene in pET28a; In the cryo-EM sample it forms tetramers that stack into filaments; also called ecCTPS; wild-type ecCTPS; source: E. coli Transetta (DE3), purified (Ni-Agarose, Superose 6 Increase)
Turning to B1, in data set [1], the “stoichiometry N” value is 4.

B2: ecCTPS with an inserted hCTPS helix 12 (ecCTPS^helix12+) (enzyme, Escherichia coli | human)
chain: MTTNYIFVTGGVVSSLGKGIAAASLAAILEARGLNVTIMKLDPYINVDPGTMSPIQHGEVFVTEDGAETDLDLGHYERFIRTKMSRRNNFTTGRIYSDVLRKERRGDYLGATVQVIPHITNAIKERVLEGGEGHDVVLVEIGGTVGDIESLPFLEAIRQMAVEIGREHTLFMHLTLVPYMAASGEVKTKPTQHSVKELLSIGIQPDILICRSDRAVPANERAKIALFCNVPEKAVISLKDVDSIYKIPGLLKSQGLDDYICKRFSLNCPEANLSEWEQVIFEEANPVSEVTIGMVGKYIELPDAYKSVIEALKHGGLKNRVSVNIKLIDSQDVETRGVEEEPVRYHEAWQILKGLDAILVPGGFGYRGVEGMITTARFARENNIPYLGICLGMQVALIDYARHVANMENANSTEFVPDCKYPVVALITEWRDENGNVEVRSEKSDLGGTMRLGAQQCQLVDDSLVRQLYNAPTIVERHRHRYEVNNMLLKQIEDAGLRVAGRSGDDQLVEIIEVPNHPWFVACQFHPEFTSTPRDGHPLFAGFVKAASEFQKRQAK
notes: E. coli CTP synthase, the stretch before the insertion; Helix 12 of human CTPS1, inserted; H346 and W349 of the variant correspond to H355 and W358 of hCTPS1; E. coli CTP synthase, the stretch after the insertion; It ends with HHHHHH, which is written here as the tag; also called engineered ecCTPS
As for B2, the binding result in data set [2] was “binds”.
